In US20170129954A1 (PROTHENA BIOSCIENCES, published 2017):
Numbering of substitutions follows the chain as printed. Names and notes keep the numbering of the source. Blank lines part the entries; values can stand above or below the binder they belong to.

Tests used:
recombinant laminin 511 = target: T1, recombinant laminin 511 (UniProt O15230 36-3695; P07942 22-1786; P11047 34-1609); assay: flow cytometry with pan-laminin antibody on CHO cells transfected with human MCAM
T1 construct: also called laminin 10 (α5β1γ1)

laminin α-4 = laminin α-4 (UniProt Q16363 25-1823); assay: FACS on mammalian cells displaying the mutant
Chain of laminin α-4 (Q16363 25-1823): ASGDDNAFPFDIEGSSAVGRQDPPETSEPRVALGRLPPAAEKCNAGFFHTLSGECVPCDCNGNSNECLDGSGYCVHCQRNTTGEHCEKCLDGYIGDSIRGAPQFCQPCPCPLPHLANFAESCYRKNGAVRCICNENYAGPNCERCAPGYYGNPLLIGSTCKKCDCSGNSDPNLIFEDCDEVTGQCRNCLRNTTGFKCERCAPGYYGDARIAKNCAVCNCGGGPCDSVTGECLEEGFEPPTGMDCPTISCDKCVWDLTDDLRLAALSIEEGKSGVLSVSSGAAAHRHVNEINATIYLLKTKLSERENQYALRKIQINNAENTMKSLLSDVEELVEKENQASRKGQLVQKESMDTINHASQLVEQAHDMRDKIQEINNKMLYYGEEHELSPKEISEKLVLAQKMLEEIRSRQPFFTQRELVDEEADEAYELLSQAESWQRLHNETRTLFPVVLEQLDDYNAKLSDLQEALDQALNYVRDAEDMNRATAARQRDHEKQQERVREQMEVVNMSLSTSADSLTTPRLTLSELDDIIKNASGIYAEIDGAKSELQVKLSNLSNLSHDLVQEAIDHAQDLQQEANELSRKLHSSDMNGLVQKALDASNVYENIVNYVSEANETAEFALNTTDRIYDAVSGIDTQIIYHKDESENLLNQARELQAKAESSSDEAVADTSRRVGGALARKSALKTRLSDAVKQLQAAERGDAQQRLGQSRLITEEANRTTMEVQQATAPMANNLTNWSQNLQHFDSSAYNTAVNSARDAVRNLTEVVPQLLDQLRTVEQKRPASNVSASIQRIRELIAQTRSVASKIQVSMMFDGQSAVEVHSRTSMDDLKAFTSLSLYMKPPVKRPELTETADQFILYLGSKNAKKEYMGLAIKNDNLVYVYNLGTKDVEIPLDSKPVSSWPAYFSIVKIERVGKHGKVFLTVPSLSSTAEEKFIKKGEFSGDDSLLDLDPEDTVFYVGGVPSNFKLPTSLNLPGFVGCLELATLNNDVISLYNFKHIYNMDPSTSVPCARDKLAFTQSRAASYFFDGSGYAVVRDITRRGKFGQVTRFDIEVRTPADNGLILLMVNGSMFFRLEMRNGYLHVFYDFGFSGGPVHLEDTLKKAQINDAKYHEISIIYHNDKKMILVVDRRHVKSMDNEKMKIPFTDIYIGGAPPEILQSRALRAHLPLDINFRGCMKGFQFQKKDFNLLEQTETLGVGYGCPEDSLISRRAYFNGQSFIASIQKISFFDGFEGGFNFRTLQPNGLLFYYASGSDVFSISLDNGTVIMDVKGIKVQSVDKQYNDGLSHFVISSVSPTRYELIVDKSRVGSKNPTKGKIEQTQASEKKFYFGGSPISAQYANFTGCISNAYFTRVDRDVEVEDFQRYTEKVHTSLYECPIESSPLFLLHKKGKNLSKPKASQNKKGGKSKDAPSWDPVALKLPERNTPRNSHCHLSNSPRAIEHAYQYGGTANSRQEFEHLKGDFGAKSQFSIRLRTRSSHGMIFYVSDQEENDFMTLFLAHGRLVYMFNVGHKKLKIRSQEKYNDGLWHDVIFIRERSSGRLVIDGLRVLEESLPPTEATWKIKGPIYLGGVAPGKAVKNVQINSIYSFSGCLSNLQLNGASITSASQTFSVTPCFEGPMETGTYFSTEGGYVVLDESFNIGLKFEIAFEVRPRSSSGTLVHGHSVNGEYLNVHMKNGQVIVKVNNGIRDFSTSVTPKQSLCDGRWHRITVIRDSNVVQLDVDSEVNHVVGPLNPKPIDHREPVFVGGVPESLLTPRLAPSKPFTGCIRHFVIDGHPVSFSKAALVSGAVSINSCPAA
Description: Twenty point mutants based on the structure information and shotgun mutagenesis information were designed and generated.

binding result (recombinant laminin 511): no binding (tested: 10 µg/ml)
B1: human MCAM, full length, expressed on transfected cells (receptor)
chain: VPGEAEQPAPELVEVEVGSTALLKCGLSQSQGNLSHVDWFSVHKEKRTLIFRVRQGQGQSEPGEYEQRLSLQDRGATLALTQVTPQDERIFLCQGKRPRSQEYRIQLRVYKAPEEPNIQVNPLGIPVNSKEPEEVATCVGRNGYPIPQVIWYKNGRPLKEEKNRVHIQSSQTVESSGLYTLQSILKAQLVKEDKDAQFYCELNYRLPSGNHMKESREVTVPVFYPTEKVWLEVEPVGMLKEGDRVEIRCLADGNPPPHFSISKQNPSTREAEEETTNDNGVLVLEPARKEHSGRYECQAWNLDTMISLLSEPQELLVNYVSDVRVSPAAPERQEGSSLTLTCEAESSQDLEFQWLREETDQVLERGPVLQLHDLKREAGGGYRCVASVPSIPGLNRTQLVKLAIFGPPWMAFKERKVWVKENMVLNLSCEASGHPRPTISWNVNGTASEQDQDPQRVLSTLNVLVTPELLETGVECTASNDLGKNTSILFLELVNLTTLTPDSNTTTGLSTSTASPHTRANSTSTERKLPEPESRGVVIVAVIVCILVLAVLGAVLYFLYKKGKLPCRRSGKQEITLPPSRKTELVVEVKSDKLPEEMGLLQGSSGDKRAPGDQGEKYIDLRH
notes: also called CD146; MUC18

binding result (laminin α-4): no binding
B2: human MCAM Y318A single mutant displayed on mammalian cells (receptor)
chain: B1 chain with Y295A
notes: also called Y318A mutant
